Measured values taken from patent US20250276092A1 (Regeneron, published 2025).
Positions count from the first letter of the chain named. Each block holds one binder with its values, some of them ahead of it.

Assays:
[1] = molecular target: T1, human CD40 extracellular domain expressed with a C-terminal myc-myc-hexahistidine tag (human); assay: SPR 25C, captured mAb
T1 construct: also called hCD40-MMH; hCD40-mmH
Experimental: (§1) The equilibrium dissociation constants (KD) for anti-CD40 bivalent and bispecific monoclonal antibodies (mAbs) were determined using a real-time surface plasmon resonance (SPR)-based Biacore 4000 biosensor. All binding studies were performed in 10 mM HEPES, 150 mM NaCl, 3 mM EDTA, and 0.05% v/v surfactant Tween-20, pH 7.4 (HBS-ET) running buffer at 25° C. and 37° C. The Biacore CM5 sensor surface was first derivatized by amine coupling with a monoclonal mouse anti-human Fc antibody (REGN2567) to capture anti-CD40 bivalent parental and anti-CD40×CD40 bispecific antibodies. Different concentrations of CD40 reagents, human CD40 extracellular domain expressed with a C-terminal myc-myc-hexahistidine tag (“hCD40-MMH”; REGN3094; SEQ ID NO: 53), monkey CD40 extracellular domain expressed with a C-terminal myc-myc-hexahistidine tag (“mfCD40-MMH”; REGN3097; SEQ ID NO: 54), and mouse CD40 extracellular domain expressed with a C-terminal myc-myc-hexahistidine tag (“mCD40-MMH”; REGN3098; SEQ ID NO: 55), at concentrations ranging from 3.7 nM to 100 nM or 3.3 nM to 90 nM in a series of 3-fold dilutions prepared in HBS-ET running buffer were injected at a flow rate of […] for 4 minutes or […] for 5 minutes. The dissociation of different CD40 reagents bound to anti-CD40 bivalent parental and anti-CD40×CD40 bispecific antibodies was monitored for 10 minutes in HBS-ET running buffer. At the end of each cycle, the anti-CD40 bivalent parental and anti-CD40×CD40 bispecific antibodies capture surface was regenerated using a 12 sec injection of 20 mM H₃PO₄.
(§2) The association rate (ka) and dissociation rate (kd) were determined by fitting the real-time binding sensorgrams to a 1:1 binding model with mass transport limitation using Scrubber 2.0c curve-fitting software. Binding dissociation equilibrium constant (KD) and dissociative half-life (t½) were calculated from the kinetic rates as: KD (M)=kd/kₐ, and t_{1/2} (min)=[ln(2)/(60*kd)].

[2] = molecular target: T1, human CD40 extracellular domain …; assay: SPR 37C, captured mAb
Experimental: as §1, §2

[3] = molecular target: T2, human CD40 expressed on cells (human, UniProt P25942 21-277); assay: cell-based or functional assay
T2 sequence (P25942 21-277): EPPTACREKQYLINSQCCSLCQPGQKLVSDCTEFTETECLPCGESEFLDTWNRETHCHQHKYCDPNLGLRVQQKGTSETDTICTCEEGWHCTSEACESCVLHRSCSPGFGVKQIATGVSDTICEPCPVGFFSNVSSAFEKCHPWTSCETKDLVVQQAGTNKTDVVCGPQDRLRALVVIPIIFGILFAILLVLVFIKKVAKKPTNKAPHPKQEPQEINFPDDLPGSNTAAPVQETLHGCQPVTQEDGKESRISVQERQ

[4] = molecular target: T2, human CD40 expressed on cells; assay: cell-based or functional assay; remark: listed apart in the source
[5] = molecular target: T2, human CD40 expressed on cells; assay: cell-based or functional assay; remark: listed apart in the source
[6] = molecular target: T2, human CD40 expressed on cells; assay: cell-based or functional assay; remark: listed apart in the source
[7] = molecular target: T2, human CD40 expressed on cells; assay: cell-based or functional assay; remark: listed apart in the source
[8] = molecular target: T2, human CD40 expressed on cells; assay: cell-based or functional assay; remark: listed apart in the source
[9] = molecular target: T1, human CD40 extracellular domain …; assay: ELISA, blocks 40 nM hCD40-mmH binding to coated 9His-hCD40L
Experimental: In the blocking assay, 9His-hCD40L was passively absorbed at a concentration of 5 μg/mL in PBS on a 96-well microtiter plate overnight at 4° C. […] In a separate 96-well microtiter plate, a fixed amount of 40 nM hCD40-mmH was pre-mixed with one of the following antibodies, at concentrations ranging from 977 pM to 1 μM in PBS+0.5% BSA: (1) anti-CD40×CD40 bispecific antibodies (REGN16431, REGN16432, REGN16634, and REGN16335); (2) parental anti-CD40 mAbs (bivalent antibodies comprising 2 fragment antigen-binding [Fab] arms identical to one of anti-CD40 Fab of anti-CD40×CD40 antibodies); (3) anti-CD40×Irrelevant antibodies (bivalent antibodies that incorporate one Fab arm identical to one of anti-CD40 Fab of anti-CD40×CD40 antibodies and another Fab arm specific to an irrelevant antigen); and (4) human IgG4 with Fc mutation isotype control antibodies (REGN7540 and REGN4513). The fixed concentration of hCD40-mmH was selected to be near the concentration (EC₅₀ value) that generated 50% of the maximal binding to the plate-adhered 9His-hCD40L. After one-hour incubation, the antibody-antigen complexes were transferred to the microtiter plate coated with 9His-hCD40L. After one hour incubation at room temperature, the plates were washed, and plate-bound hCD40-mmH protein was detected with horseradish peroxidase (HRP) conjugated goat anti-c-Myc antibody. The plates were then developed using TMB substrate solution (BD Biosciences) according to the manufacturer's recommended procedure and the absorbance at 450 nm (OD₄₅₀) was measured on a SpectraMax i3× plate reader.
Binding data were analyzed using a sigmoidal (four-parameter logistic) dose-response model with GraphPad Prism™ software. […] The percent blocking of tested antibodies at the highest tested concentration ([…]) was calculated based on the formula shown below: […]

[10] = molecular target: T2, human CD40 expressed on cells; assay: cell-based or functional assay; remark: listed apart in the source
[11] = molecular target: T2, human CD40 expressed on cells; assay: cell-based or functional assay; remark: listed apart in the source
[12] = molecular target: T2, human CD40 expressed on cells; assay: cell-based or functional assay; remark: listed apart in the source

T1 sequence (chain, as listed by the source limits assumed): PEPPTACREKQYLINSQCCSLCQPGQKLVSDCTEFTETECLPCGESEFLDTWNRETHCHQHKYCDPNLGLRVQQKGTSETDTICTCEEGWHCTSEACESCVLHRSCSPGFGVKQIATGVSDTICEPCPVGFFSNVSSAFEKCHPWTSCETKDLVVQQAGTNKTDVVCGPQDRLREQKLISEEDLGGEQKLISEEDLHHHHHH

100 nM Ag Bound (RU) [1]: 61.2 RU | 100 nM Ag Bound (RU) [2]: 61.2 RU | IC50, NFkB-luc Ramos, 500 pM hCD40L [3]: 8.54e-11 M | Max % activation, NFkB-luc Ramos, no ligand [3]: 6% | Max % inhibition, NFkB-luc Ramos, 500 pM hCD40L [3]: 90% | IC50, NFkB-luc Raji, 900 pM hCD40L [4]: 1.07e-10 M | Max % activation, NFkB-luc Raji, no ligand [4]: 13% | Max % inhibition, NFkB-luc Raji, 900 pM hCD40L [4]: 82% | IC50, NFkB-luc THP-1, 10 nM hCD40L [5]: 0.287 nM | Max % activation, NFkB-luc THP-1, no ligand [5]: 2% | Max % inhibition, NFkB-luc THP-1, 10 nM hCD40L [5]: 98% | % max blockade relative to no mAb, IL-6, B cells, donor 1 [6]: 84% | % max blockade relative to no mAb, IL-6, B cells, donor 2 [6]: 92.7% | % max blockade relative to no mAb, IL-6, B cells, donor 3 [6]: 92.7% | % max blockade relative to no mAb, IL-10, B cells, donor 1 [7]: 80.7% | % max blockade relative to no mAb, IL-10, B cells, donor 2 [7]: 86.9% | % max blockade relative to no mAb, IL-10, B cells, donor 3 [7]: 89.3% | % max blockade relative to no mAb, TNFa, B cells, donor 1 [8]: 44.7% | % max blockade relative to no mAb, TNFa, B cells, donor 2 [8]: 74.1% | % max blockade relative to no mAb, TNFa, B cells, donor 3 [8]: 70.4% | % Blocking at highest mAb concentration [9]: 93%
B1: REGN16431 (bispecific antibody, human IgG4 S228P, kappa)
heavy 1: QLQLQESGPGLVRPSETLSLTCSVSGASMNTNNYYWGWIRQPPGKGLEWIGSGYYNGNTYYNPSLKSRVTISVDTSKNQFSLKLNSVTAADTAVYYCARQTPPRIIGSPNIWGQGTMVTVSSASTKGPSVFPLAPCSRSTSESTAALGCLVKDYFPEPVTVSWNSGALTSGVHTFPAVLQSSGLYSLSSVVTVPSSSLGTKTYTCNVDHKPSNTKVDKRVESKYGPPCPPCPAPPVAGPSVFLFPPKPKDTLMISRTPEVTCVVVDVSQEDPEVQFNWYVDGVEVHNAKTKPREEQFNSTYRVVSVLTVLHQDWLNGKEYKCKVSNKGLPSSIEKTISKAKGQPREPQVYTLPPSQEEMTKNQVSLTCLVKGFYPSDIAVEWESNGQPENNYKTTPPVLDSDGSFFLYSRLTVDKSRWQEGNVFSCSVMHEALHNHYTQKSLSLSLGK
heavy 2: EVQLVESGGGLVQPGGSLRLSCAASGFTFGSYGMAWVRQAPGKGLEWVSAISGSGDYTNYADSVKRRFTISRDNSKNTLYLQMSSLRAEDTAVYYCAKEKTGTTGYLYSGMDVWGQGTTVTVSSASTKGPSVFPLAPCSRSTSESTAALGCLVKDYFPEPVTVSWNSGALTSGVHTFPAVLQSSGLYSLSSVVTVPSSSLGTKTYTCNVDHKPSNTKVDKRVESKYGPPCPPCPAPPVAGPSVFLFPPKPKDTLMISRTPEVTCVVVDVSQEDPEVQFNWYVDGVEVHNAKTKPREEQFNSTYRVVSVLTVLHQDWLNGKEYKCKVSNKGLPSSIEKTISKAKGQPREPQVYTLPPSQEEMTKNQVSLTCLVKGFYPSDIAVEWESNGQPENNYKTTPPVLDSDGSFFLYSRLTVDKSRWQEGNVFSCSVMHEALHNRFTQKSLSLSPGK
light: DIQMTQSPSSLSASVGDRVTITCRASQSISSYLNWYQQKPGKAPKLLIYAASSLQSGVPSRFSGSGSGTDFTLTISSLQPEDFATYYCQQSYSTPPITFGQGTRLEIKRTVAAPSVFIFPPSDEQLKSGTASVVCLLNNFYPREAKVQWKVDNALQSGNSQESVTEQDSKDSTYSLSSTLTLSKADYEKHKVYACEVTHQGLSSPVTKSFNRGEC

100 nM Ag Bound (RU) [1]: 56.6 RU | 100 nM Ag Bound (RU) [2]: 56.6 RU | IC50, NFkB-luc Ramos, 500 pM hCD40L [3]: 4.92e-11 M | Max % activation, NFkB-luc Ramos, no ligand [3]: 4% | Max % inhibition, NFkB-luc Ramos, 500 pM hCD40L [3]: 94% | IC50, NFkB-luc Raji, 900 pM hCD40L [4]: 1.02e-10 M | Max % activation, NFkB-luc Raji, no ligand [4]: 5% | Max % inhibition, NFkB-luc Raji, 900 pM hCD40L [4]: 68% | IC50, NFkB-luc THP-1, 10 nM hCD40L [5]: 0.148 nM | Max % activation, NFkB-luc THP-1, no ligand [5]: 6% | Max % inhibition, NFkB-luc THP-1, 10 nM hCD40L [5]: 97% | % max blockade relative to no mAb, IL-6, B cells, donor 1 [6]: 83.5% | % max blockade relative to no mAb, IL-6, B cells, donor 2 [6]: 92% | % max blockade relative to no mAb, IL-6, B cells, donor 3 [6]: 92% | % max blockade relative to no mAb, IL-10, B cells, donor 1 [7]: 81.5% | % max blockade relative to no mAb, IL-10, B cells, donor 2 [7]: 94.5% | % max blockade relative to no mAb, IL-10, B cells, donor 3 [7]: 90.6% | % max blockade relative to no mAb, TNFa, B cells, donor 1 [8]: 53.5% | % max blockade relative to no mAb, TNFa, B cells, donor 2 [8]: 68.4% | % max blockade relative to no mAb, TNFa, B cells, donor 3 [8]: 69.1% | % Blocking at highest mAb concentration [9]: 95%
B2: REGN16432 (bispecific antibody, human IgG4 S228P, kappa)
heavy 1: EVQLVESGGGLVQPGGSLRLSCAASGFTFSSYAMNWVRQAPGKGLEWVSIISGTIGKTYYADSVKGRFTISRDNSKNTLYLQMNSLRGEDTAVYYCAKDTERDITGSPFDYWGQGTLVTVSSASTKGPSVFPLAPCSRSTSESTAALGCLVKDYFPEPVTVSWNSGALTSGVHTFPAVLQSSGLYSLSSVVTVPSSSLGTKTYTCNVDHKPSNTKVDKRVESKYGPPCPPCPAPPVAGPSVFLFPPKPKDTLMISRTPEVTCVVVDVSQEDPEVQFNWYVDGVEVHNAKTKPREEQFNSTYRVVSVLTVLHQDWLNGKEYKCKVSNKGLPSSIEKTISKAKGQPREPQVYTLPPSQEEMTKNQVSLTCLVKGFYPSDIAVEWESNGQPENNYKTTPPVLDSDGSFFLYSRLTVDKSRWQEGNVFSCSVMHEALHNHYTQKSLSLSLGK
heavy 2: B1 heavy 2
light: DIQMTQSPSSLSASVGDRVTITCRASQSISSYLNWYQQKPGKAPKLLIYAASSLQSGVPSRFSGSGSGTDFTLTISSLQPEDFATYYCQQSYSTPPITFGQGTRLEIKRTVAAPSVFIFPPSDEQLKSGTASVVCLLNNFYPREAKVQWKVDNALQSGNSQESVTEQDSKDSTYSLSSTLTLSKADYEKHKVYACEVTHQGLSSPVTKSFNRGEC

IC50, NFkB-luc Ramos, 500 pM hCD40L [3]: 3.86e-11 M | Max % activation, NFkB-luc Ramos, no ligand [3]: 5% | Max % inhibition, NFkB-luc Ramos, 500 pM hCD40L [3]: 93% | IC50, NFkB-luc Raji, 900 pM hCD40L [4]: 4.94e-11 M | Max % activation, NFkB-luc Raji, no ligand [4]: 9% | Max % inhibition, NFkB-luc Raji, 900 pM hCD40L [4]: 102% | IC50, NFkB-luc THP-1, 10 nM hCD40L [5]: 0.221 nM | Max % activation, NFkB-luc THP-1, no ligand [5]: 3% | Max % inhibition, NFkB-luc THP-1, 10 nM hCD40L [5]: 98% | % max blockade relative to no mAb, IL-6, B cells, donor 1 [6]: 83.2% | % max blockade relative to no mAb, IL-6, B cells, donor 2 [6]: 91.4% | % max blockade relative to no mAb, IL-6, B cells, donor 3 [6]: 91.4% | % max blockade relative to no mAb, IL-10, B cells, donor 1 [7]: 78.5% | % max blockade relative to no mAb, IL-10, B cells, donor 2 [7]: 93.6% | % max blockade relative to no mAb, IL-10, B cells, donor 3 [7]: 89.8% | % max blockade relative to no mAb, TNFa, B cells, donor 1 [8]: 45% | % max blockade relative to no mAb, TNFa, B cells, donor 2 [8]: 64.7% | % max blockade relative to no mAb, TNFa, B cells, donor 3 [8]: 61.6% | % max blockade relative to no mAb, IL-6, assay #2, donor 1 [10]: 88.4% | % max blockade relative to no mAb, IL-6, assay #2, donor 2 [10]: 87% | % max blockade relative to no mAb, IL-10, assay #2, donor 1 [11]: 88.5% | % max blockade relative to no mAb, IL-10, assay #2, donor 2 [11]: 87.8% | % max blockade relative to no mAb, TNFa, assay #2, donor 1 [12]: 62.4% | % max blockade relative to no mAb, TNFa, assay #2, donor 2 [12]: 52.5% | % Blocking at highest mAb concentration [9]: 96%
B3: REGN16335 (bispecific antibody, human IgG4 S228P, kappa)
heavy 1: B2 heavy 1 with P235G, V236G, A237G
heavy 2: B1 heavy 2 with P237G, V238G, A239G
light: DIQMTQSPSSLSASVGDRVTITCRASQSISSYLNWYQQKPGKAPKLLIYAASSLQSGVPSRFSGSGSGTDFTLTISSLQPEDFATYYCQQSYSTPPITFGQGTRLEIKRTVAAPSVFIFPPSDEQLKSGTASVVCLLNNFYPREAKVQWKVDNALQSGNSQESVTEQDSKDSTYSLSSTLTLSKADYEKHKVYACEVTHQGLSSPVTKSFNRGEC
